Consider seven proteins from patent publication US20110269938A1 (COMMONWEALTH SCIENTIFIC AND INDUSTRIAL RESEARCH ORGANISATION, published 2011).

Data set [1] deals with the molecule itself. Kind of data set: self-association of familial mutation variants.
Data set [2] deals with the molecule itself. The data set can be described thus: Western blot of periplasmic fraction, self-association. Background: In western blotting, separated proteins are transferred to a membrane and probed.
Data set [3] deals with the molecule itself. The data set can be described thus: Western blot of periplasmic fraction (self-association).

B1: Aβ-IgNAR 37F-2 (Asp23Asn) (VNAR)
VNAR: AWVDQTPRTATKETGESLTINCVLRDASFELKDTGWYRTKLGSTNEQSISIGGRYVETVNKGSKSFSLRISDLRVEDSGTYKCQAFYVFFAENVGSNKGAIIGLMVGGVVIGGEKGAGTALTVKA
notes: also called familial mutant Asp23Asn
Turning to B1, the binding result in data set [1] is “binds”.

B2: Aβ-IgNAR 37K-1 (Glu22Gln) (VNAR)
VNAR: AWVDQTPRTATKETGESLTINCVLRDASFELKDTGWYRTKLGSTNEQSISIGGRYVETVNKGSKSFSLRISDLRVEDSGTYKCQAFYVFFAQDVGSNKGAIIGLMVGGVVIGGEKGAGTALTVKA
notes: also called familial mutant Glu22Gln
As for B2, in data set [1], the binding result is “binds”.

B3: Aβ-IgNAR 37L-2 (Ala21Gly) (VNAR)
VNAR: AWVDQTPRTATKETGESLTINCVLRDASFELKDTGWYRTKLGSTNEQSISIGGRYVETVNKGSKSFSLRISDLRVEDSGTYKCQAFYVFFGEDVGSNKGAIIGLMVGGVVIGGEKGAGTALTVKA
notes: also called familial mutant Ala21Gly
With B3, the binding result in data set [1] is recorded as “binds”.

B4: Aβ-IgNAR-G3 (VNAR)
VNAR: AWVDQTPRTATKETGESLTINCVLRDASFELKDTGWYRTKLGSTNEQSISIGGRYVETVNKGSKSFSLRISDLRVEDSGTYKCQAFYGLVFFAEDVGSNKGAIIGLMVGGVVIAGGGEKGAGTALTVKA
notes: No crystals obtained; also called 37A-1; glycine-3 version
With B4, the binding result in data set [2] was “binds”.

B5: IgNAR single variable domain antibody 12Y-2 (VNAR)
VNAR: AWVDQTPRTATKETGESLTINCVLRDASFELKDTGWYRTKLGSTNEQSISIGGRYVETVNKGSKSFSLRISDLRVEDSGTYKCQAFYSLPLGDYNYSLLFRGEKGAGTALTVKA
notes: Scaffold without Aβ insert, used as the monomeric control; also called IgNAR wt; wild type IgNAR
For B5, in data set [3], the binding result is listed as “no binding”.

B6: Aβ-IgNAR 37R-1 (ΔGlu22) (VNAR)
VNAR: AWVDQTPRTATKETGESLTINCVLRDASFELKDTGWYRTKLGSTNEQSISIGGRYVETVNKGSKSFSLRISDLRVEDSGTYKCQAFYVFFADVGSNKGAIIGLMVGGVVIGGEKGAGTALTVKA
notes: also called familial mutant ΔGlu22
In the case of B6, the binding result in data set [1] is given as “binds”.

B7: Aβ-IgNAR-G6 (VNAR)
VNAR: AWVDQTPRTATKETGESLTINCVLRDASFELKDTGWYRTKLGSTNEQSISIGGRYVETVNKGSKSFSLRISDLRVEDSGTYKCQAFYGGGLVFFAEDVGSNKGAIIGLMVGGVVIAGGGGEKGAGTALTVKA
notes: No crystals obtained; also called 37Q-6; glycine-6 version
For the protein B7, the binding result in data set [2] is “binds”.
